Substitutions are numbered along the chain they refer to.
B1: 6A12 scFv (scFv, from a related filing, part only)
scFv: DIQMTQSPSSLSASVGDRVTITCRASQDVGIYVNWFQQKPGKAPRRLIYRATNLADGVPSRFSGSRSGTDFTLTISSLQPEDFATYYCLQYDAHPLTFGGGTKVEIKDGGGSGGGGSGGGGSSEVQLVESGGGLVQPGGSLRLSCAASGFTFNNYWMTWVRQAPGKGLEWVASIDNSGDNTYYPDSVKDRFTISRDNAKNSLYLQMNSLRAEDTAVYYCARGGDITTGFDYWGQGTLVTVSS
B2: 3G8 scFv (scFv, from a related filing, part only)
scFv: B1 scFv
B3: 6C11 scFv (scFv, from a related filing, part only)
scFv: B1 scFv
B4: 3B7 scFv (scFv, from a related filing, part only)
scFv: B1 scFv with Y91F, A93S
B5: 3B2 scFv (scFv)
chain: B1 scFv with Q90E, Y91F, A93E, T226L, T227V, F229L
B6: 6E3 scFv (scFv)
chain: B1 scFv with Q90E, Y91F, A93E, T226R, T227V, G228S, F229L, Y231F
B7: 6C3 scFv (scFv)
chain: B1 scFv with Q90E, Y91F, A93E, T227L, F229L, Y231V
B8: 6D5 scFv (scFv)
chain: B1 scFv with Q90E, Y91F, A93E, T226K, T227V, G228S, F229L, Y231Q
B9: 3D5 scFv (scFv)
chain: B1 scFv with Q90E, Y91F, A93E, T226K, T227V, F229L, Y231L
B10: 3B4 scFv (scFv)
chain: B1 scFv with Q90E, Y91F, A93E, T226R, T227E, F229L, D230R
B11: 6C1 scFv (scFv)
chain: B1 scFv with Q90E, Y91L, A93E, T226K, T227V, F229L, Y231N
B12: 6B6 scFv (scFv)
chain: B1 scFv with Q90E, Y91F, A93E, T226I, T227I, G228S, F229L, Y231W
B13: 3C6 scFv (scFv)
chain: B1 scFv with Q90E, Y91F, A93E, T226V, T227V, F229L, Y231H

The binders below were run against biotin labeled hRAGE-Fc (human) (UniProt Q15109) (assay: HTRF competition; scFv against Eu-cryptate XT-M4 for biotin-hRAGE-Fc).
Chain of biotin labeled hRAGE-Fc (human) (Q15109 24-344): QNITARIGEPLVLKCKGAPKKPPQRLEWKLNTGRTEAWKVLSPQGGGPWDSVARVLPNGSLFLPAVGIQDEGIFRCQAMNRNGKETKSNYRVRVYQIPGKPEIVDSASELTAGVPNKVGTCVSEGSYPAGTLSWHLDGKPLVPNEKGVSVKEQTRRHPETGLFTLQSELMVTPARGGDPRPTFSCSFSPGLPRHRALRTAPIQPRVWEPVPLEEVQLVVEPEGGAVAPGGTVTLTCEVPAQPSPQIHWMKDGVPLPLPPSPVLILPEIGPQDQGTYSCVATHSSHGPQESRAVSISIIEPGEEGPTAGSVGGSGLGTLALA

B1 and B2 are within 1.5-fold of each other in IC50: 8.27 nM for the first, 8.08 nM for the second.

B3 and B4 are within 1.5-fold of each other in IC50: 9.03 nM for the first, 7.35 nM for the second.

Each binder was assayed against T1, biotin labeled hRAGE-Fc (human, UniProt Q15109 24-344, biotin-labeled (site not stated)) in the same assay as above.
T1 construct: used biotinylated in HTRF and coated in ELISA; also called Biotin-labeled RAGE-Fc; biotinylated-RAGE-Fc; not shown: Fc part not described
T1 sequence (Q15109 24-344): as above

First: B5
Second: B6
The IC50 of the first is 1.9-fold lower: 0.91 nM for the first, 1.74 nM for the second. The first is the more potent here.

B7 and B8 are within 1.5-fold of each other in IC50: 1.52 nM for the first, 1.45 nM for the second.

First: B9
Second: B10
The IC50 of the first is 2.3-fold higher: 2.99 nM for the first, 1.3 nM for the second.

Compared with B11, B12 is 6.9-fold lower in IC50: 4.44 nM for the first, 0.64 nM for the second. The second is the more potent here.

B13 was tested, and the IC50 was 1.25 nM.

— patent publication US20100120634A1 (Pfizer, published 2010)
